Residue numbers refer to the chain shown, from its start.
T1: Perilipin epitope 2 peptide QYPPEKIASELKDTI (SEQ ID NO. 331) (human, Biotin-PEG Spacer and GGSGGS Linker (SEQ ID NO. 438) at the N-terminus, or Biotin-PEG Spacer and AAAAA Linker (SEQ ID NO. 439) at the C-terminus)
T1 construct: Two biotinylated variants were used for selection and ELISA; On the peptide array it stood without biotin; also called target peptide
T1 peptide: QYPPEKIASELKDTI

T2: Perilipin epitope 1 peptide NKGLTLLDGDLPEQE (SEQ ID NO. 330) (human, Biotin-PEG Spacer and GGSGGS Linker (SEQ ID NO. 438) at the N-terminus, or Biotin-PEG Spacer and AAAAA Linker (SEQ ID NO. 439) at the C-terminus)
T2 construct: Two biotinylated variants were used for selection and ELISA; On the peptide array it stood without biotin; also called target peptide
T2 peptide: NKGLTLLDGDLPEQE

T3: Perilipin epitope 5 peptide AKPSLLSRVGALTNT (SEQ ID NO. 332) (human, Biotin-PEG Spacer and GGSGGS Linker (SEQ ID NO. 438) at the N-terminus, or Biotin-PEG Spacer and AAAAA Linker (SEQ ID NO. 439) at the C-terminus)
T3 construct: Two biotinylated variants were used for selection and ELISA; On the peptide array it stood without biotin; also called target peptide
T3 peptide: AKPSLLSRVGALTNT

B1: Antibody No. 10 (antibody, V domains shown)
VH: EVQLVQSGAEVKKPGSSVKISCKASGGTFSSYAISWVRQAPGQGLEWMGGIIPIFGTANYAQKFQGRVTITADESTSTAYMELSSLRSEDTAVYYCARSHSSGWEWWGQGTLVTVSS
VL: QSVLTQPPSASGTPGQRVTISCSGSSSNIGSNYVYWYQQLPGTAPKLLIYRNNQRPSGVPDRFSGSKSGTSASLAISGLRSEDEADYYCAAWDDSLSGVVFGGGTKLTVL
notes: human IgG1, lambda or kappa light chain; also called 439-E10
B2: Antibody No. 11 (antibody, V domains shown)
VH: QVQLVQSGAEVKKPGASVKVSCKASGYTFTSYGISWVRQAPGQGLEWMGWISAYNGNTNYAQKLQGRVTMTTDTSTSTAYMELRSLRSDDTAVYYCASLYCSGGSCYSALDPWGQGTLVTVSS
VL: QSVLTQPPSVSGAPGQRVTISCTGSSSNIGAGYDVHWYQQLPGTAPKLLIYGNSNRPSGVPDRFSGSKSGTSASLAITGLQAEDEADYYCQSYDSSLRYVVFGGGTKVTVL
notes: human IgG1, lambda or kappa light chain; also called 447-D12
B3: Antibody No. 5 (antibody, V domains shown)
VH: QVQLVESGGGVVQPGRSLRLSCAASGFTFSSYAMHWVRQAPGKGLEWVAVISYDGSNKYYADSVKGRFTISRDNSKNTLYLQMNSLRAEDTAVYYCARIAAAGPFDYWGQGTLVTVSS
VL: SYVLTQPPSVSEAPRQRVTISCSGSSSNIGNNAVNWYQQLPGKAPKLLIYYDDLLPSGVSDRFSGSKSGTSASLAISGLQSEDEADYYCAAWDDSLNGVVFGGGTKLTVL
notes: human IgG1, lambda or kappa light chain; also called 438-G12; antibody #5
B4: Antibody No. 7 (antibody, V domains shown)
VH: QVQLVQSGGSVVQPGRSLRLSCAASGFTFSSYAMHWVRQAPGKGLEWVAVISYDGSNKYYADSVKGRFTISRDNSKNTLYLQMNSLRAEDTAVYYCARFASIAARPFDYWGQGTLVTVSS
VL: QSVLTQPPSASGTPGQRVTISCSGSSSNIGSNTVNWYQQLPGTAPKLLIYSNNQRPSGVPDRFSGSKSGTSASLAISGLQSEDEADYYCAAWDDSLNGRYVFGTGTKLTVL
notes: human IgG1, lambda or kappa light chain; also called 448-D02
B5: Antibody No. 8 (antibody, V domains shown)
VH: QVQLVESGAEVKKPGASVKVSCKASGYTFTSYGISWVRQAPGQGLEWMGWISAYNGNTNYAQKLQGRVTMTTDTSTSTAYMELRSLRSDDTAVYYCARGGSSSNYWGQGTLVTVSS
VL: QSALTQPASVSGSPGQSITISCTGTSSDVGGYNYVSWYQQHPGKAPKLMIYEVSNRPSGVSNRFSGSKSGNTASLTISGLQAEDEADYYCSSYTSSSTLVFGGGTKLTVL
notes: human IgG1, lambda or kappa light chain; also called 448-E03
B6: Antibody No. 6 (antibody, V domains shown)
VH: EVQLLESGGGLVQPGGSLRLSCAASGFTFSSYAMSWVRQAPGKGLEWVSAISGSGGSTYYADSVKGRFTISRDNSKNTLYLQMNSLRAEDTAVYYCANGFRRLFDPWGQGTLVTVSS
VL: QSALTQPASVSGSPGQSITISCTGTSSDVGGYNYVSWYQQHPGKAPKLMIYDVSNRPSGVSNRFSGSKSGNTASLTISGLQAEDEADYYCSSYTSSSTHVVFGGGTKLTVL
notes: human IgG1, lambda or kappa light chain; also called 448-B03
B7: Antibody No. 9 (antibody, V domains shown)
VH: QVQLVQSGGGVVQPGRSLRLSCAASGFTFSSYGMHWVRQAPGKGLEWVAVISYDGSNKYYADSVKGRFTISRDNSKNTLYLQMNSLRAEDTAVYYCANNPSSGADYWGQGTLVTVSS
VL: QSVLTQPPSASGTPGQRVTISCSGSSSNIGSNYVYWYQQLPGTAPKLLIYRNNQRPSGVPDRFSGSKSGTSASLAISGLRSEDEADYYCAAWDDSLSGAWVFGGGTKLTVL
notes: human IgG1, lambda or kappa light chain; also called 448-G01
B8: Antibody No. 19 (antibody, V domains shown)
VH: QVQLVQSGGGVVQPRRSLRLSCAASGFTFSSYAMHWVRQAPGKGLEWVAVISYDGSNKYYADPVKGRFTISRDNSKNTLYLQMNSLRAEDTAVYYCARGGDGYNWDAFDIWGQGTMVTVSS
VL: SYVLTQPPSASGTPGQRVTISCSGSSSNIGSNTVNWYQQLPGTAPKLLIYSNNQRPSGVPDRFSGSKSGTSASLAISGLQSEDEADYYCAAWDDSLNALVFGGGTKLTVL
notes: human IgG1, lambda or kappa light chain; also called 447-D04
B9: Antibody No. 16 (antibody, V domains shown)
VH: QVQLVEFGGGVVQPGRSLRLSCAASGFTFSSYGMHWVRQAPGKGLEWVAAISYDGSNKYYADSVKGRFTISRDNSKNTLYLQMNSLRAEDTAVYYCAKDMGLSWYGEFDYWGQGTLVTVSS
VL: QSVLTQPPSVSEAPRQRVTISCSGSSSNIGNNAVSWYQQLPGKAPKLLIYYDDLLPSGVSDRFSGSKSGTSASLAISGLQSEDEADYYCAAWDDSLNWVFGGGTKLTVL
notes: human IgG1, lambda or kappa light chain; also called 447-B05
B10: Antibody No. 35 (antibody, V domains shown)
VH: QVQLVQSGAEVKKPGTTVKISCKVSGYSFTDYYMHWVQQAPGKGLEWMGLVDPEDGETLYAEKFQGRVTITVDTSTDTAYMELSSLRSEDTAVYYCAAEPQMVQGPSPPDYWGQGTLVTVSS
VL: B5 VL with N33S, E52D, V100L
notes: human IgG1, lambda or kappa light chain; also called 447-E03
B11: Antibody No. 21 (antibody, V domains shown)
VH: QVQLVESGGGLVQPGRSLRLSCAASGFTFDDYAMHWVRQAPGKGLEWVSGISWNSGSIGYADSVKGRFTISRDNAKNSLYLQMNSLRAEDTALYYCAKEGEYSYGGGEFDPWGQGTLVTVSS
VL: B5 VL with E52D, L99W
notes: human IgG1, lambda or kappa light chain; also called 447-G03
B12: Antibody No. 37 (antibody, V domains shown)
VH: QVQLVQSGAEVKKPGASVKVSCKASGYTFTSYYMHWVRQAPGQGLEWMGIINPSGGSTSYAQKFQGRVTMTRDTSTSTVYMELSSLRSEDTAVYYCARDSYYDSSGYYYADAFDIWGQGTMVTVSS
VL: QSVLTQPPSVSGAPGQRVTISCTGSSSNIGAGYDVHWYQQLPGTAPKLLIYGNSNRPSGVPDRFSGSKSGTSASLAITGLQAEDEADYYCQSYDSSLSGDVVFGGGTKLTVL
notes: human IgG1, lambda or kappa light chain; also called 447-F02
B13: Antibody No. 14 (antibody, V domains shown)
VH: QVQLVESGGGLVQPGRSLRLSCAASGFTFDDYAMHWVRQAPGKGLEWVSGISWNSGSIGYADSVKGRFTISRDNAKNSLYLQMNSLRAEDTALYYCAKEGYGNDAFDIWGQGTMVTVSS
VL: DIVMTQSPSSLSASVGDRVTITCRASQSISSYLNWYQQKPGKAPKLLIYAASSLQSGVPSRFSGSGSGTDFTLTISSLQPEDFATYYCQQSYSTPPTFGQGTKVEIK
notes: human IgG1, lambda or kappa light chain; also called 432-H10
B14: Antibody No. 18 (antibody, V domains shown)
VH: EVQLLESGGGLVQPGRSLRLACVASGFTFDDYGMHWVRQAPGKGLEWVAVISYDGSNKYYADSVKGRFTISRDNSKNTLYLQMNSLRAEDTAVYYCAKAYGEGGFDPWGQGTLVTVSS
VL: B6 VL with D52E, H99T, V100W, L108V
notes: human IgG1, lambda or kappa light chain; also called 447-D03
B15: Antibody No. 17 (antibody, V domains shown)
VH: EVQLVQSGGGVVQPGRSLRLSCAASGFTFSSYGMHWVRQAPGKGLEWVAVISYDGSNKYYADSVKGRFTISRDNSKNTLYLQMNSLRAEDTAVYYCAKDIFMDVWGQGTMVTVSS
VL: B6 VL with H99L
notes: human IgG1, lambda or kappa light chain; also called 447-C04
B16: Antibody No. 38 (antibody, V domains shown)
VH: EVQLVQSGAEVKKPGASVKVSCKASGYTFTSYYMHWVRQAPGQGLEWMGIINPSGGSTSYAQKFQGRVTMTRDTSTSTVYMELSSLRSEDTAVYYCARNVPGDYEVGFDYWGQGTLVTVSS
VL: B2 VL with R98S, Y99A, V108L
notes: human IgG1, lambda or kappa light chain; also called 447-A05
B17: Antibody No. 22 (antibody, V domains shown)
VH: QVQLVESGGGVVQPGRSLRLSCAASGFTFSSYGMHWVRQAPGKGLEWVAVISYDGSNKYYADSVKGRFTISRDNSKNTLYLQMNSLRAEDTAVYYCANTPGGLTPFDYWGQGTLVTVSS
VL: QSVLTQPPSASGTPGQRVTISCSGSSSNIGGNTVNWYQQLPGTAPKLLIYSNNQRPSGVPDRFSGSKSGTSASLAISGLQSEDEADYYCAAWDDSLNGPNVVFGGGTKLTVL
notes: human IgG1, lambda or kappa light chain; also called 447-H03
B18: Antibody No. 36 (antibody, V domains shown)
VH: B7 VH with Q1E, Q6E, G33A, N98R, N99D, S101L, S102Y, A104M, Y106V
VL: QSVLTQPPSASGSPGQSVTISCTGTSSDVGNYNYVSWFQQHPGKAPKLMIYEVSKRPSGVPDRFSGSKSGNTASLTVSGLQAEDEADYYCASYADSNNLYVFGTGTKLTVL
notes: human IgG1, lambda or kappa light chain; also called 447-B03

Target: T1, Perilipin epitope 2 peptide …
Test: phage display selection and ELISA on biotinylated target peptide

Binder | binding result
B1 | binds
B2 | binds

Target: T2, Perilipin epitope 1 peptide …
Test: as above

Binder | binding result
B3 | binds
B4 | binds
B5 | binds
B6 | binds
B7 | binds

Target: T3, Perilipin epitope 5 peptide …
Test: as above

Binder | binding result
B8 | binds
B9 | binds
B10 | binds
B11 | binds
B12 | binds
B13 | binds
B14 | binds
B15 | binds
B16 | binds
B17 | binds
B18 | binds

— patent US20220153822A1 (ALYTAS THERAPEUTICS, published 2022)
